Patent US20220213213A1

Assays:
[1] = biological target: human/mouse CD137 chimera 1551 (human/mouse chimera) (UniProt Q07011); test: flow cytometry, transfected 293-F cells
[2] = biological target: human/mouse CD137 chimera 1550 (human/mouse chimera) (UniProt Q07011); test: flow cytometry, transfected 293-F cells
[3] = biological target: human/mouse CD137 chimera 1552 (human/mouse chimera) (UniProt Q07011); test: flow cytometry, transfected 293-F cells
[4] = biological target: human/mouse CD137 chimera 1555 (human/mouse chimera) (UniProt Q07011); test: flow cytometry, transfected 293-F cells
[5] = biological target: human/mouse CD137 chimera 1554 (human/mouse chimera) (UniProt Q07011); test: flow cytometry, transfected 293-F cells
[6] = biological target: human/mouse CD137 chimera 1553 (human/mouse chimera) (UniProt Q07011); test: flow cytometry, transfected 293-F cells
[7] = biological target: human/mouse CD137 chimera 1551 (human/mouse chimera) (UniProt Q07011); test: flow cytometry, transfected 293-F cells, Exp 2
[8] = biological target: human/mouse CD137 chimera 1550 (human/mouse chimera) (UniProt Q07011); test: flow cytometry, transfected 293-F cells, Exp 2
[9] = biological target: human/mouse CD137 chimera 1552 (human/mouse chimera) (UniProt Q07011); test: flow cytometry, transfected 293-F cells, Exp 2
[10] = biological target: human/mouse CD137 chimera 1555 (human/mouse chimera) (UniProt Q07011); test: flow cytometry, transfected 293-F cells, Exp 2
[11] = biological target: human/mouse CD137 chimera 1554 (human/mouse chimera) (UniProt Q07011); test: flow cytometry, transfected 293-F cells, Exp 2
[12] = biological target: human/mouse CD137 chimera 1553 (human/mouse chimera) (UniProt Q07011); test: flow cytometry, transfected 293-F cells, Exp 2
[13] = biological target: human/mouse CD137 chimera 1551 (human/mouse chimera) (UniProt Q07011); test: flow cytometry, transfected 293-F cells, Exp 1
[14] = biological target: human/mouse CD137 chimera 1550 (human/mouse chimera) (UniProt Q07011); test: flow cytometry, transfected 293-F cells, Exp 1
[15] = biological target: human/mouse CD137 chimera 1552 (human/mouse chimera) (UniProt Q07011); test: flow cytometry, transfected 293-F cells, Exp 1
[16] = biological target: human/mouse CD137 chimera 1555 (human/mouse chimera) (UniProt Q07011); test: flow cytometry, transfected 293-F cells, Exp 1
[17] = biological target: human/mouse CD137 chimera 1554 (human/mouse chimera) (UniProt Q07011); test: flow cytometry, transfected 293-F cells, Exp 1
[18] = biological target: human/mouse CD137 chimera 1553 (human/mouse chimera) (UniProt Q07011); test: flow cytometry, transfected 293-F cells, Exp 1
[19] = biological target: human/mouse 5T4 chimera E5 (human/mouse chimera) (UniProt Q13641); test: flow cytometry, chimera-transfected cells
[20] = biological target: human/mouse 5T4 chimera E2 (human/mouse chimera) (UniProt Q13641); test: flow cytometry, chimera-transfected cells
[21] = biological target: human/mouse 5T4 chimera E6 (human/mouse chimera) (UniProt Q13641); test: flow cytometry, chimera-transfected cells
[22] = biological target: human/mouse 5T4 chimera E4 (human/mouse chimera) (UniProt Q13641); test: flow cytometry, chimera-transfected cells
[23] = biological target: human/mouse 5T4 chimera E7 (human/mouse chimera) (UniProt Q13641); test: flow cytometry, chimera-transfected cells
[24] = biological target: human/mouse 5T4 chimera E3 (human/mouse chimera) (UniProt Q13641); test: flow cytometry, chimera-transfected cells
[25] = biological target: human/mouse 5T4 chimera E1 (human/mouse chimera) (UniProt Q13641); test: flow cytometry, chimera-transfected cells

B1: 1200/1201 (antibody, V domains shown)
VH: EVQLLESGGGLVQPGGSLRLSCAASGFTFSSYAMSWVRQAPGKGLEWVSGISGGGGGTYYADSVKGRFTISRDNSKNTLYLQMNSLRAEDTAVYYCARDVAYFDYWGQGTLVTVSS
VL: DIQMTQSPSSLSASVGDRVTITCRASQSISSYLNWYQQKPGKAPKLLIYAASSLQSGVPSRFSGSGSGTDFTLTISSLQPEDFATYYCQQYYIPHTFGQGTKLEIK
For B1, the relative MFI normalized to full-length human CD137 [1] was 0.04, the relative MFI normalized to full-length human CD137 [2] was 0.05 and the relative MFI normalized to full-length human CD137 [3] was 0.05. For the same binder, the relative MFI normalized to full-length human CD137 [4] was 0.24, the relative MFI normalized to full-length human CD137 [5] was 0.84 and the relative MFI normalized to full-length human CD137 [6] was 0.65.

B2: 1214/1215 (antibody, V domains shown)
VH: EVQLLESGGGLVQPGGSLRLSCAASGFTFSSYAMSWVRQAPGKGLEWVSSIGSGGGYTGYADSVKGRFTISRDNSKNTLYLQMNSLRAEDTAVYYCARVGHPFDYWGQGTLVTVSS
VL: DIQMTQSPSSLSASVGDRVTITCRASQSISSYLNWYQQKPGKAPKLLIYAASSLQSGVPSRFSGSGSGTDFTLTISSLQPEDFATYYCQQDAYPHTFGQGTKLEIK
In the case of B2, the relative MFI normalized to full-length human CD137 [7] is reported as 0.15, the relative MFI normalized to full-length human CD137 [8] is reported as 0.14 and the relative MFI normalized to full-length human CD137 [9] is reported as 0.13. It also gave a relative MFI normalized to full-length human CD137 [10] of 0.45, a relative MFI normalized to full-length human CD137 [11] of 0.15 and a relative MFI normalized to full-length human CD137 [12] of 0.15. For the same binder, the relative MFI normalized to full-length human CD137 [13] was 0.07, the relative MFI normalized to full-length human CD137 [14] was 0.06 and the relative MFI normalized to full-length human CD137 [15] was 0.32. The relative MFI normalized to full-length human CD137 [16] was 0.3, the relative MFI normalized to full-length human CD137 [17] was 0.26 and the relative MFI normalized to full-length human CD137 [18] was 0.41.

B3: 1620/1621 (antibody, V domains shown)
VH: EVQLLESGGGLVQPGGSLRLSCAASGFTFSGYYMYWVRQAPGKGLEWVSGISSSGSYTYYADSVKGRFTISRDNSKNTLYLQMNSLRAEDTAVYYCARSVGPYFDYWGQGTLVTVSS
VL: DIQMTQSPSSLSASVGDRVTITCRASQSISSYLNWYQQKPGKAPKLLIYAASSLQSGVPSRFSGSGSGTDFTLTISSLQPEDFATYYCQQGVGPYTFGQGTKLEIK
Binder B3 has a relative MFI normalized to full-length human CD137 [1] of 0.33, a relative MFI normalized to full-length human CD137 [2] of 0.17 and a relative MFI normalized to full-length human CD137 [3] of 0.18. It also gave a relative MFI normalized to full-length human CD137 [4] of 0.32, a relative MFI normalized to full-length human CD137 [5] of 0.17 and a relative MFI normalized to full-length human CD137 [6] of 0.17.

B4: 1212/1213 (antibody, V domains shown)
VH: EVQLLESGGGLVQPGGSLRLSCAASGFTFSSYAMSWVRQAPGKGLEWVSYISSYGGYTSYADSVKGRFTISRDNSKNTLYLQMNSLRAEDTAVYYCARYHSGVLDYWGQGTLVTVSS
VL: DIQMTQSPSSLSASVGDRVTITCRASQSISSYLNWYQQKPGKAPKLLIYAASSLQSGVPSRFSGSGSGTDFTLTISSLQPEDFATYYCQQYYYHYLLTFGQGTKLEIK
B4 showed a normalized % positive cells [19] of 0.84, a normalized % positive cells [20] of 0.9 and a normalized % positive cells [21] of 0.03. It also gave a normalized % positive cells [22] of 1, a normalized % positive cells [23] of 0.88 and a normalized % positive cells [24] of 0.93. The normalized % positive cells [25] was 0.89.

B5: 1204/1205 (antibody, V domains shown)
VH: EVQLLESGGGLVQPGGSLRLSCAASGFTFSSYYMGWVRQAPGKGLEWVSGIGSYYGYTGYADSVKGRFTISRDNSKNTLYLQMNSLRAEDTAVYYCARAYYDYNYYYAYFDYWGQGTLVTVSS
VL: DIQMTQSPSSLSASVGDRVTITCRASQSISSYLNWYQQKPGKAPKLLIYAASSLQSGVPSRFSGSGSGTDFTLTISSLQPEDFATYYCQQSVPHYPFTFGQGTKLEIK
B5 gave a relative MFI normalized to full-length human CD137 [1] of 0.11, a relative MFI normalized to full-length human CD137 [2] of 0.07 and a relative MFI normalized to full-length human CD137 [3] of 0.13. For the same binder, the relative MFI normalized to full-length human CD137 [4] was 0.28, the relative MFI normalized to full-length human CD137 [5] was 0.73 and the relative MFI normalized to full-length human CD137 [6] was 0.85.

B6: 1626/1627 (antibody, V domains shown)
VH: EVQLLESGGGLVQPGGSLRLSCAASGFTFGGYSMYWVRQAPGKGLEWVSSIGGYYYSTYYADSVKGRFTISRDNSKNTLYLQMNSLRAEDTAVYYCARSYYGSIDYWGQGTLVTVSS
VL: DIQMTQSPSSLSASVGDRVTITCRASQSISSYLNWYQQKPGKAPKLLIYAASSLQSGVPSRFSGSGSGTDFTLTISSLQPEDFATYYCQQGTGYGPLTFGQGTKLEIK
B6 gave a relative MFI normalized to full-length human CD137 [1] of 0.11, a relative MFI normalized to full-length human CD137 [2] of 0.1 and a relative MFI normalized to full-length human CD137 [3] of 0.11. It also gave a relative MFI normalized to full-length human CD137 [4] of 0.29, a relative MFI normalized to full-length human CD137 [5] of 0.12 and a relative MFI normalized to full-length human CD137 [6] of 0.14.

B7: 1202/1203 (antibody, V domains shown)
VH: EVQLLESGGGLVQPGGSLRLSCAASGFTFYGSSMSWVRQAPGKGLEWVSSIYYGSSGTYYADSVKGRFTISRDNSKNTLYLQMNSLRAEDTAVYYCARSYYGYFDYWGQGTLVTVSS
VL: DIQMTQSPSSLSASVGDRVTITCRASQSISSYLNWYQQKPGKAPKLLIYAASSLQSGVPSRFSGSGSGTDFTLTISSLQPEDFATYYCQQYYTVVPFTFGQGTKLEIK
B7 showed a relative MFI normalized to full-length human CD137 [1] of 0.05, a relative MFI normalized to full-length human CD137 [2] of 0.05 and a relative MFI normalized to full-length human CD137 [3] of 0.06. The relative MFI normalized to full-length human CD137 [4] was 0.26, the relative MFI normalized to full-length human CD137 [5] was 0.51 and the relative MFI normalized to full-length human CD137 [6] was 0.65.

B8: 1206/1207 (antibody, V domains shown)
VH: EVQLLESGGGLVQPGGSLRLSCAASGFTFSGSSMSWVRQAPGKGLEWVSSIYYSGSGTYYADSVKGRFTISRDNSKNTLYLQMNSLRAEDTAVYYCARYGRNVHPYNLDYWGQGTLVTVSS
VL: DIQMTQSPSSLSASVGDRVTITCRASQSISSYLNWYQQKPGKAPKLLIYAASSLQSGVPSRFSGSGSGTDFTLTISSLQPEDFATYYCQQGYYYLPTFGQGTKLEIK
With B8 the normalized % positive cells [19] was 0.9, the normalized % positive cells [20] was 0.74 and the normalized % positive cells [21] was 0.94. The normalized % positive cells [22] was 0.52, the normalized % positive cells [23] was 0.94 and the normalized % positive cells [24] was 0.25. It also gave a normalized % positive cells [25] of 0.96.

B9: 1618/1619 (antibody, V domains shown)
VH: EVQLLESGGGLVQPGGSLRLSCAASGFTFSYGSMYWVRQAPGKGLEWVSSISSGSGSTYYADSVKGRFTISRDNSKNTLYLQMNSLRAEDTAVYYCARSSYYGSYYSIDYWGQGTLVTVSS
VL: DIQMTQSPSSLSASVGDRVTITCRASQSISSYLNWYQQKPGKAPKLLIYAASSLQSGVPSRFSGSGSGTDFTLTISSLQPEDFATYYCQQYYDNLPTFGQGTKLEIK
B9 gave a relative MFI normalized to full-length human CD137 [1] of 0.67, a relative MFI normalized to full-length human CD137 [2] of 0.11 and a relative MFI normalized to full-length human CD137 [3] of 1.2. It also gave a relative MFI normalized to full-length human CD137 [4] of 0.12, a relative MFI normalized to full-length human CD137 [5] of 1.01 and a relative MFI normalized to full-length human CD137 [6] of 1.24.
